Series [1] has as its target TFIIIC220;TFIIIC110;TFIIIC102;TFIIIC90;TFIIIC63;TFIIIC35 (human;human;human;human;human;human, UniProt Q12789;Q8WUA4;Q9Y5Q9;Q9UKN8;Q9Y5Q8;Q969F1 1-2109;1-911;1-886;1-822;1-519;1-213, |||||). The series is described as follows: filter binding; 150 mM KCl, 2 mM MgCl2, 4 C; Filter binding: 20 mM Tris-HCl pH 7.5, 150 mM KCl, 2 mM MgCl2, 5 mM DTT, 30 min 4 C, ~0.5 nM DNA; EMSA: 20 mM Hepes pH 8, 225 mM KCl, 2 mM MgCl2, 5 mM DTT, RT 10 min, 0.8% agarose gel at 4 C. As to conditions: protein: recombinant;recombinant;recombinant;recombinant;recombinant;recombinant; tags: C-terminal 3xFLAG;N-terminal TEV-cleavable His;;;N-terminal TEV-cleavable His;; copies: 1;1;1;1;1;1; label: 5'-32P; blunt. In general terms: A gel shift assay detects complexes by their altered migration in electrophoresis.

Series [2] deals with T1, human TFIIIC subunit TFIIIC102 (human, UniProt Q9Y5Q9 1-886).
T1 construct: TFIIIC102, subunit of human TFIIIC; No truncation is described; also called τ131 in yeast (homolog); GTF3C3; source: Sf21 insect cells, baculovirus, coexpressed with the other five hTFIIIC subunits; purified (anti-FLAG M2 agarose, Capto HiRes Q)
T1 sequence: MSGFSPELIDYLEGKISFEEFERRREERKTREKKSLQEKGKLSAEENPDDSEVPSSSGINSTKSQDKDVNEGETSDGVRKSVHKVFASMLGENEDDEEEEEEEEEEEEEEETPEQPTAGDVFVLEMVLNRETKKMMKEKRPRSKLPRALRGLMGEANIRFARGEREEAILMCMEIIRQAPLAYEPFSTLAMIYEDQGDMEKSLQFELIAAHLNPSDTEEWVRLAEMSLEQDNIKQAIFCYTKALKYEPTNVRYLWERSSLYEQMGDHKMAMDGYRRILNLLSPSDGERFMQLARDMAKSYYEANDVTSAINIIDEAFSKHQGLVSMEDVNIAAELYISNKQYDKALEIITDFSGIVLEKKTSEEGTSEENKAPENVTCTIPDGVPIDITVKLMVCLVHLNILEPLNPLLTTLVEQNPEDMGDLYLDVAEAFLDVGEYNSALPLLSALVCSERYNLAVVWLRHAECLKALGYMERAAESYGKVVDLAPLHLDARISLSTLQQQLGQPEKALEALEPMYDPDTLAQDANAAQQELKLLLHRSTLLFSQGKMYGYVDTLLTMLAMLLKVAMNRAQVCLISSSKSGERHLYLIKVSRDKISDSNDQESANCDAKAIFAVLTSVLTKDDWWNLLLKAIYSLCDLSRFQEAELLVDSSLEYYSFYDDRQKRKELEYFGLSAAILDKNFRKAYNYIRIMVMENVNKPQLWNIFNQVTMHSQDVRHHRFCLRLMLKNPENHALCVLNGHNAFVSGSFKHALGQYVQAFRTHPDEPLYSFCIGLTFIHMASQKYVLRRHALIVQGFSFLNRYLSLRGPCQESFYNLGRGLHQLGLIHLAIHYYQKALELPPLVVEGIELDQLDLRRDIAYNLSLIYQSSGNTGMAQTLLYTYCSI
In words: cryo-EM structure; purified hTFIIIC (3.17 μM) alone or with human TRR-TCT3-2 tRNA gene DNA at a 1:1 molar ratio; EM buffer 20 mM Hepes pH 8, 225 mM KCl, 2 mM MgCl2, 5 mM DTT; 0.1% octyl-β-glucoside; separate reconstructions of τA and of dimeric τB. As to conditions: both partners purified.

In series [3] the target is T2, human TFIIIC subunit TFIIIC220 (human, UniProt Q12789 1-2109).
T2 construct: TFIIIC220, largest subunit of human TFIIIC; 2109 amino acids as printed; No truncation is described; the expected mass of 624 kDa is that of the intact complex; also called τ138 in yeast (homolog); GTF3C1; source: Sf21 insect cells, baculovirus, coexpressed with the other five hTFIIIC subunits; purified (anti-FLAG M2 agarose, Capto HiRes Q); not shown: 3x FLAG, C-terminal, kept
The description is as above. As to conditions: both partners purified.

The Kd is a measure of binding affinity in units of concentration.

Sequence of TFIIIC220;TFIIIC110;TFIIIC102;TFIIIC90;TFIIIC63;TFIIIC35 (Q12789 whole entry, chain 1 of 3): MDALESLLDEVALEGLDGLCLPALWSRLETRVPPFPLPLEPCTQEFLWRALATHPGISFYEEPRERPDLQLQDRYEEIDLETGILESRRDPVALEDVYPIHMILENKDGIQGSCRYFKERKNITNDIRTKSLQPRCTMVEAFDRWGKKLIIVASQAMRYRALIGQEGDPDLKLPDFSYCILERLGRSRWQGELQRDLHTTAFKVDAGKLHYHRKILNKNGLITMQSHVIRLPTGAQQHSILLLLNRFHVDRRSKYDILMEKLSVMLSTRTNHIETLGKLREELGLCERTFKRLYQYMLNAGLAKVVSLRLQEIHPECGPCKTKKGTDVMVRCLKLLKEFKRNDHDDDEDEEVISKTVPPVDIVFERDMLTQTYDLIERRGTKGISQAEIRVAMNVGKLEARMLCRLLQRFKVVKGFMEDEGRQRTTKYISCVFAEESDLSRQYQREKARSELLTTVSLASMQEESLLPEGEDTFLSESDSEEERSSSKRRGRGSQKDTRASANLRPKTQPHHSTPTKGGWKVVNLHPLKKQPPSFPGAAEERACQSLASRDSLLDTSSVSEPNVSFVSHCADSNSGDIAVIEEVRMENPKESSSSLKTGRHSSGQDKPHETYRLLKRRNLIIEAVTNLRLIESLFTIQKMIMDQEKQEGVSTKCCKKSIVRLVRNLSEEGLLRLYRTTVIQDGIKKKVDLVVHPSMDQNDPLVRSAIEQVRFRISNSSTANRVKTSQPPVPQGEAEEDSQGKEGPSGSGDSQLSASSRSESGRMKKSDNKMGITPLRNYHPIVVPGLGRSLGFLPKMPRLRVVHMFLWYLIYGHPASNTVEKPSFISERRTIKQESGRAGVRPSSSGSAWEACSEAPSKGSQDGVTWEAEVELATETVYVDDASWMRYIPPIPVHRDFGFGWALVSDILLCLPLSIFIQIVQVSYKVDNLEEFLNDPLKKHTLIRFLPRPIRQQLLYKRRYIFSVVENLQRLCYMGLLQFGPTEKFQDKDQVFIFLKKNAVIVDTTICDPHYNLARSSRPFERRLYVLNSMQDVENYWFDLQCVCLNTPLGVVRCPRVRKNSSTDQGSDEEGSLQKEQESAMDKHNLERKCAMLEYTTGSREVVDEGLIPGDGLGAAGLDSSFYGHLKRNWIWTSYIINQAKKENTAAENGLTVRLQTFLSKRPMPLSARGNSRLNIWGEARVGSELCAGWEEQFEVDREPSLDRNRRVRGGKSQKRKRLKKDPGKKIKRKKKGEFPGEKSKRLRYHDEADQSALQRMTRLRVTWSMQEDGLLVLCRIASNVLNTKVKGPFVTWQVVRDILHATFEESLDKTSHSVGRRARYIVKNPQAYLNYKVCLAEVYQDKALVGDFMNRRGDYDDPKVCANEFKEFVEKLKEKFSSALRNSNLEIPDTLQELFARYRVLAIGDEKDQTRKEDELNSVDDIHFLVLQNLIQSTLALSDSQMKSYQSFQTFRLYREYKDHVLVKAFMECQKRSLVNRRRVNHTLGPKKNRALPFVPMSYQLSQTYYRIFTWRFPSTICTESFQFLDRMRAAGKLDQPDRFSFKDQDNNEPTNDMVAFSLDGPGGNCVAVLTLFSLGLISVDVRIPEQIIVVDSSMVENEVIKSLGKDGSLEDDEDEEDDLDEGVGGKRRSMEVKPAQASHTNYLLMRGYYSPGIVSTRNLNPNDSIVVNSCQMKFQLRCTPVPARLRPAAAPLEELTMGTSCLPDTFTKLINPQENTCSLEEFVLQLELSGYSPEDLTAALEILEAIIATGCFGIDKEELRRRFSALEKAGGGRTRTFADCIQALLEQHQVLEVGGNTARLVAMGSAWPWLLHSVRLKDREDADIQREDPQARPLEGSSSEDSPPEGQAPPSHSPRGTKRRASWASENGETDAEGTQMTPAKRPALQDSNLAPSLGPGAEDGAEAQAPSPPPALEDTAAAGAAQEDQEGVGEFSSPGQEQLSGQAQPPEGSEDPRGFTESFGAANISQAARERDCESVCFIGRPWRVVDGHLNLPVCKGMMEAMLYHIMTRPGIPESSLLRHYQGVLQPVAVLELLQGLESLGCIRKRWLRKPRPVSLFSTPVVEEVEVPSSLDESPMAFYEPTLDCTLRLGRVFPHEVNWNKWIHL
Sequence of TFIIIC220;TFIIIC110;TFIIIC102;TFIIIC90;TFIIIC63;TFIIIC35 (Q8WUA4 whole entry, chain 2 of 3): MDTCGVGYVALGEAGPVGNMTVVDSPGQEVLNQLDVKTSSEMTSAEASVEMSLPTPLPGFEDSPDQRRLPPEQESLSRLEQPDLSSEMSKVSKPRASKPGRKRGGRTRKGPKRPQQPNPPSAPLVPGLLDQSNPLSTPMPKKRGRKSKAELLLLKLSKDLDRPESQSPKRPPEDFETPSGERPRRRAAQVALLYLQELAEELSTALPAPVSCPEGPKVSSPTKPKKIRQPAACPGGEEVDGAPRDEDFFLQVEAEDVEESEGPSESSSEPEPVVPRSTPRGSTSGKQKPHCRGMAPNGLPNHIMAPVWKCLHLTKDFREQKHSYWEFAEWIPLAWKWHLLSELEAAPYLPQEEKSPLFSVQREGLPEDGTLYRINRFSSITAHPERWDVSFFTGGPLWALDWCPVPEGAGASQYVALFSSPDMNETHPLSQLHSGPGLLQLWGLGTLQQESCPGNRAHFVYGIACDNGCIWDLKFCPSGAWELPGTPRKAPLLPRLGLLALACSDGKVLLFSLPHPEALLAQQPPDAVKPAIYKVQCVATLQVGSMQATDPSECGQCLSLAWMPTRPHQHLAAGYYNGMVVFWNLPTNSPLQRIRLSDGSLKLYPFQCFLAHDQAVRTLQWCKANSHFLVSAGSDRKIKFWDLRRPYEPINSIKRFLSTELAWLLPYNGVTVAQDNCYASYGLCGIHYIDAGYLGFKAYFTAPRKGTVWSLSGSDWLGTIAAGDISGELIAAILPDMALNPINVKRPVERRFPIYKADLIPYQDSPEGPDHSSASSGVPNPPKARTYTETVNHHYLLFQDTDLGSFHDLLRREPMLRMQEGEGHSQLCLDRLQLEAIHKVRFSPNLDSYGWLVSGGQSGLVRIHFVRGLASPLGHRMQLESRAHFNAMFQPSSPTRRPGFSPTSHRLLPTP
Sequence of TFIIIC220;TFIIIC110;TFIIIC102;TFIIIC90;TFIIIC63;TFIIIC35 (Q9UKN8 whole entry, chain 4 of 3): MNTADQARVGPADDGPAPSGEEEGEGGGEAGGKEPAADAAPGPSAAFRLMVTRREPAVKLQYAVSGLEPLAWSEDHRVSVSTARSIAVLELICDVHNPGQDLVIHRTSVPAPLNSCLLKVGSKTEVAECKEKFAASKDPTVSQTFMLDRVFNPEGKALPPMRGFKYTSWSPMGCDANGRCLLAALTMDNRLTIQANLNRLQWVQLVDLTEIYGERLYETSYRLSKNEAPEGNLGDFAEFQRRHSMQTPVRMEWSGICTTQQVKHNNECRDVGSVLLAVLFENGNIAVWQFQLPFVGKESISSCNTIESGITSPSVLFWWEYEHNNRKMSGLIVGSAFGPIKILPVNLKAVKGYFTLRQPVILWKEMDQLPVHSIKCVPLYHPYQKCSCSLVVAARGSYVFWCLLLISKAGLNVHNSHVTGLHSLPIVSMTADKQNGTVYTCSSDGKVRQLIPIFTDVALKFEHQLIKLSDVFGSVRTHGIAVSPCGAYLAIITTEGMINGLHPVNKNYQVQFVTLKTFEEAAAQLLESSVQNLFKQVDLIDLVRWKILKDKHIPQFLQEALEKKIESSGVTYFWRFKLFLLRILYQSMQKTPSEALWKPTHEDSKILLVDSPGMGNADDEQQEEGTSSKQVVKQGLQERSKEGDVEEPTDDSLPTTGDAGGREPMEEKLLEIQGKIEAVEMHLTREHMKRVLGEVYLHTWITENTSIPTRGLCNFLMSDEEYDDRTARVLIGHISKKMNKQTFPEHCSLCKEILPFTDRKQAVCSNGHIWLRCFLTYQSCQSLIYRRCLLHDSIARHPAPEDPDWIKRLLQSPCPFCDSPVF
T2 sequence (Q12789 whole entry, the tested form may be a part): as the sequence (Q12789 whole entry, chain 1 of 3) above

B1: TRR-TCT3-2 tRNA gene, 32P-labeled (dsDNA)
DNA 1: ACGTGTCTGGCTCTGTGGCGCAATGGATAGCGCATTGGACTTCTAGATAGTTAGAGAAATTCAAAGGTTGTGGGTTCGAGTCCCACAGAGTCGCTTTT
DNA 2: AAAAGCGACTCTGTGGGACTCGAACCCACAACCTTTGAATTTCTCTAACTATCTAGAAGTCCAATGCGCTATCCATTGCGCCACAGAGCCAGACACGT
In the case of B1, the Kd in series [1] came to 40 nM.

B2: TFIIIC35-TFIIIC63 heterodimer (complex, human)
chain 1: MAAAADERSPEDGEDEEEEEQLVLVELSGIIDSDFLSKCENKCKVLGIDTERPILQVDSCVFAGEYEDTLGTCVIFEENVEHADTEGNNKTVLKYKCHTMKKLSMTRTLLTEKKEGEENIGGVEWLQIKDNDFSYRPNMICNFLHENEDEEVVASAPDKSLELEEEEIQMNDSSNLSCEQEKPMHLEIEDSGPLIDIPSETEGSVFMETQMLP
chain 2: MAAEAADLGLGAAVPVELRRERRMVCVEYPGVVRDVAKMLPTLGGEEGVSRIYADPTKRLELYFRPKDPYCHPVCANRFSTSSLLLRIRKRTRRQKGVLGTEAHSEVTFDMEILGIISTIYKFQGMSDFQYLAVHTEAGGKHTSMYDKVLMLRPEKEAFFHQELPLYIPPPIFSRLDAPVDYFYRPETQHREGYNNPPISGENLIGLSRARRPHNAIFVNFEDEEVPKQPLEAAAQTWRRVCTNPVDRKVEEELRKLFDIRPIWSRNAVKANISVHPDKLKVLLPFIAYYMITGPWRSLWIRFGYDPRKNPDAKIYQVLDFRIRCGMKHGYAPSDLPVKAKRSTYNYSLPITVKKTSSQLVTMHDLKQGLGPSGTSGARKPASSKYKLKDSVYIFREGALPPYRQMFYQLCDLNVEELQKIIHRNDGAENSCTERDGWCLPKTSDELRDTMSLMIRQTIRSKRPALFSSSAKADGGKEQLTYESGEDEEDEEEEEEEEEDFKPSDGSENEMETEILDYV
notes: TFIIIC35, subunit of human TFIIIC; as the chain of m6; TFIIIC63, subunit of human TFIIIC; as the chain of m5; source: Sf21 insect cells, baculovirus, coexpressed within the six-subunit hTFIIIC complex; purified (anti-FLAG M2 agarose, Capto HiRes Q)
For the molecule B2, the binding result in series [2] and in series [3] was “binds” each time.

Values taken from publication PMC11811891, “Structural insights into human TFIIIC promoter recognition” (Science Advances, 2023).
